Experimental data reported in publication PMC2706832.

Molecular target: wild-type CCR1 expressed on HEK293 cells (human) (UniProt P32246)
Sequence (P32246 whole entry): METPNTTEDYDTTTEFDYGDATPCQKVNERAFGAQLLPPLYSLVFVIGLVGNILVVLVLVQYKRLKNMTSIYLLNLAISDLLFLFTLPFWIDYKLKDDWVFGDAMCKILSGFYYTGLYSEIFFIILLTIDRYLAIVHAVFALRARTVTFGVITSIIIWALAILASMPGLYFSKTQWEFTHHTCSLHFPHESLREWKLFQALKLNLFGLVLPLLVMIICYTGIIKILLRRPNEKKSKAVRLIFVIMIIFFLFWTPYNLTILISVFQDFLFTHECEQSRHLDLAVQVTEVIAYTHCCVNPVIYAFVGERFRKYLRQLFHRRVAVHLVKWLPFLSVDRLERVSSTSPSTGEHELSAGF

EC50 for calcium flux in CCR1-transfected HEK293 cells: > 1000 nM
B1: CCL14 full length (1-74) (ligand)
chain: TKTESSSRGPYHPSECCFTYTTYKIPRQRIMDYYETNSQCSKPGIVFITKRGHSVCTNPSDKWVQDYIKDMKEN
